Patent US20040152179A1 (US Dept. of Health and Human Services, published 2004)

Columns and labels:
[1] = target: diphtheria toxin receptor on Cos-7 cells (monkey kidney) (monkey) (UniProt Q09118); test: cold competitor against I^125-labelled DT on Cos-7 cells; reference native DT
[2] = target: diphtheria toxin receptor on human cell lines (U251, HeLa, Jurkat) (human) (UniProt Q99075); test: cell-based or functional assay
[3] = target: T1, DTR (diphtheria toxin receptor binding domain, codons 384-535 of DT), control protein (UniProt P00588 416-567); test: competition with I^125-labelled DT on Cos-7 cells
T1 construct: range 384-535

| Molecule | fold lower affinity than native DT [1] [fold] | Apoptosis Prevention (%), HeLa cells, 0.2 uM STS, 2.17 uM Bcl-xL-DTR, 10 hrs [2] [%] | binding result [3] |
| --- | --- | --- | --- |
| Bcl-xL-DTR | 3 | 32.4 | – |
| diphtheria toxin receptor on Cos-7 cells (monkey kidney) (receptor, whole, on cells; also called DT receptor) DLQEADLDLLRVTLSSKPQALATPSKEEHGKRKKKGKGLGKKRDPCLRKYKDFCIHGECKYVKELRAPSCICHPGYHGERCHGLSL | – | – | no binding |
